Experimental data: patent publication US20210113687A1, “METHODS FOR TREATING INFLAMMATION” (NEW YORK UNIVERSITY, priority 2013, published 2021)

System: BMDM
Experiment: qRT-PCR of BMDM (palmitate, cytokines, adipocyte conditioned media)
Format: cell-based, mouse
Conditions: direct addition of cytokine
Protocol: Real-time Quantitative RT-PCR Analysis RNA (0.5-1 μg) was reverse transcribed using iScript™ cDNA Synthesis Kit (Biorad) and RT-PCR analysis was conducted using kapa SYBR green Supermix (kappa syber) and a Mastercycler Realplex (Eppendorf) the primers used are listed. Fold change in mRNA expression was calculated using the comparative cycle method (ΔΔCt).
Cell culture. Primary bone marrow derived macrophage (BMDM) was prepared by flushing the bone marrow of the tibia and femur of 6-8 week old C57/B6 mice. The cells were grown in DMEM supplemented with 15% L929-conditioned media, 10% FBS and 1% penicillin/streptomycin for 7 days. BMDM were stimulated 250 pM palmitate conjugated with BSA or BSA as a control for 24 hours, or TNFα (10 ng/ml, 410-MT-010; R&D systems), IL-6 (40 nglml, 406-ML-005; R&D systems) and IL-4 (1 Onglml, 404-ML-010; R&D systems) for 24 h. In some assays, differentiated BMDM were treated with conditioned media from 3T3-L1 adipocytes differentiated as described (Lin, et al., J Biol Chem, 2005; 280:4617-4626) and treated with 250 pM palmitate conjugated with BSA or BSA for 24 hours. In certain experiments, anti-TNFα (0.4 μg/ml, AF-410-NA, R&D systems) or anti-IL-6 (0.025 μg/ml, MAB406; R&D systems) blocking antibody or IgG control (Normal Goat IgG: AB-108-C, Rat IgG1: MAB005; R&D systems) was added to conditioned media. […]

B1: IL-6: cytokine, 406-ML-005 R&D systems (protein, UniProt P08505 25-211, looked up)
Interleukin-6: FPTSQVRRGDFTEDTTPNRPVYTTSQVGGLITHVLWEIVEMRKELCNGNSDCMNNDDALAENNLKLPEIQRNDGCYQTGYNQEICLLKISSGLLEYHSYLEYMKNNLKDNKKDKARVLQRDTETLIHIFNQEVKDLHKIVLPTPISNALLTDKLESQKEWLRTKTIQFILKSLEEFLKVTLRSTRQT
  Ntn1 mRNA in BMDMs: increased Ntn1 mRNA
